Assays:
[1] = target: Aβ1-42 binding to recombinant human ApoE4 (Homo sapiens, UniProt P05067); experiment: ELISA of Aβ1-42 binding to recombinant human ApoE4; format: biochemical; settings: saturating concentrations of ApoE4 and Aβ1-42
From the text: FIG. 9 provides a graph corresponding to the experiments described in Example 6.2. […] Percent inhibition of signal without an IgG monoclonal antibody is shown. […] The interaction site of ApoE4 with Aβ1-42 requires amino acids 18 to 28 (Strittmatter et al., 1993).

FcγRIIIa-V158 = target: T1, FcγRIIIa-V158 (Homo sapiens, UniProt P08637, F176V); experiment: FcγR binding ELISA, FcγRIIIa-V158; settings: cross-linked IgG mAb
T1 construct: fusion proteins containing the extracellular domain of the receptor γ-chain
T1 sequence (P08637 17-208 F176V): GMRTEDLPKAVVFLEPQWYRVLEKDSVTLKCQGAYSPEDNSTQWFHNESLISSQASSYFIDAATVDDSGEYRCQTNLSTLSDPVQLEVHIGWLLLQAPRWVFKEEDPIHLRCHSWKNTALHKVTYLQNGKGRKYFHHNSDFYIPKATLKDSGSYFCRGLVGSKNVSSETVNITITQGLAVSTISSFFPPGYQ
Experimental: The ability of these different monoclonal antibody backbones to internalize Aβ1-42 oligomers into microglia was then compared using confocal imaging on Aβ1-42 oligomer treated primary cortical microglia. […] To verify that microglia are indeed the cells taking up Aβ1-42 complexed to monoclonal antibodies, the study was repeated using HiLyte Fluor-488 tagged Aβ1-42 and co-stained for the microglial marker Iba1.
The binding of test antibodies to a panel of human Fcγ receptors (FcγRs) was measured using enzyme-linked immunosorbent assay (ELISA). Human FcγRs (Genentech, Inc., CA) are fusion proteins containing the extracellular domain of the receptor γ-chain with a Gly/6xHis/glutathione S transferase (GST) polypeptide tag at the C terminus. A monoclonal antibody with human IgG1 framework was used as the positive control (IgG1 control) in this experiment. Plates were coated with a mouse monoclonal anti GST antibody (Genentech, Inc.) in a 0.05 M sodium carbonate buffer (pH 9.6) overnight at 4° C. After blocking with an assay buffer containing phosphate buffered saline (PBS), 0.5% BSA, and 0.05% Tween-20, the plates were incubated with FcγRs at room temperature for 1 h. Human FcγRs were immobilized to the plate via interaction with the anti-GST coating. […] Diluted samples were applied as monomeric forms for the high affinity receptor (FcγRIa), or multimeric forms for the low affinity receptors (FcγRIIa, FcγRIIb, and FcγRIIIa). […] The antibodies bound to the FcγRs were detected with horseradish peroxidase (HRP)-conjugated F(ab′)2 fragment of goat anti human F(ab′)2 (Jackson ImmunoResearch Laboratories; West Grove, Pa.). […] The reaction was terminated with 1 M H3PO4, and absorbance at 450 nm with reference at 650 nm was measured on a plate reader (Molecular Devices, Sunnyvale, Calif.). Binding curves were generated by plotting the mean absorbance values from duplicates of sample dilutions against the respective sample absorbance.

p38MAPK = experiment: Phospho-p38MAPK ELISA; format: cell-based, rat; settings: 10 μM Aβ1-42 oligomers for 30 min, 100 μg/mL antibody
Experimental: FIG. 5 provides graphs and immunocytochemical images corresponding to the experiments described in Example 6.6. […] An IgG1 monoclonal antibody not binding to Aβ was used as control. The activity of p38MAP K was measured by a phospho-specific ELISA as described in Methods (A). The mean (±SEM) of 4 independent experiments is shown. Statistical analysis was done using one-way ANOVA followed by Tukey post-hoc multiple comparison. Activation of p38MAPK with Aβ1-42 oligomers complexed with monoclonal antibody was specific to microglia (B). Cells were treated as described above and then stained for phospho-p38MAP K (green), with Iba1 (red), and with DAPI (blue). […] Pure microglia from CX3CR1-GFP mice were used to verify microglia-specific p38 activity (C). […] A cytotoxicity assay using the MTT readout was performed after 24 h. The mean (±SEM) of 4 experiments is shown. […]
Rat cortical cultures were seeded onto poly-L-lysine coated 6-well cell-culture plates (Costar, Cambridge, Mass., USA) and used at DIV 5. […] Protein concentration was determined by the BCA assay (Pierce, Rockford, Ill., USA). For semi-quantitative measure of p38MAPK activation, a rat phospho-p38MAPK colorimetric ELISA kit was used (Cell Signaling Technology, Beverly, Mass., USA), following the manufacturer's instructions. Plates were read on a spectrophotometric microplate reader (Tecan) at a […]. […]

Aβ1-42 binding to recombinant human ApoE4, sequence (P05067 672-713 limits assumed): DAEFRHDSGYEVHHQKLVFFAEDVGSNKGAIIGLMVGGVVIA

Row | Substance | inhibition of the Aβ1-42 and ApoE4 interaction [1] | binding to FcγRIIIa-V158, hierarchy (FcγRIIIa-V158) | Aβ1-42 oligomer-induced p38MAPK activity (p38MAPK)
1 | MABT: humanized anti-Aβ monoclonal antibody of IgG4 isotype, affinity matured and humanized form of mouse mMABT | over 80% | MABT-IgG>MABT>MABT-IgG1-D265A | did not reduce the Aβ1-42 oligomer-induced p38MAPK activity, but rather showed a trend towards higher activity
2 | MABT-IgG1: same antigen binding sequences as MABT on human IgG1 wild-type backbone with full FcγR-binding capacity |  | MABT-IgG>MABT>MABT-IgG1-D265A | increased the Aβ1-42 oligomer-induced p38MAPK activity even further

From patent publication US9221900B2, “Methods for identifying safe and functional humanized antibodies” (AC IMMUNE S.A., priority 2010, dated 2015)
